{"source": "patent US9260728B2", "about": "“Terpene synthases from Santalum” (UNIVERSITY OF BRITISH COLUMBIA, priority 2009, dated 2016)", "molecules": {"B1": {"name": "SauSSy: santalene synthase from Santalum austrocaledonicum, gene SEQ ID NO:3, protein SEQ ID NO:4 (protein, listed as Santalum austrocaledonicum)", "chain": "MDSSTATAMTAPFIDPTDHVNLKTDTDASENRRMGNYKPSIWNYDFLQSLATHHNIVEERHLKLAEKLKGQVKFMFGAPMEPLAKLELVDVVQRLGLNHRFETEIKEALFSIYKDESNGWWFGHLHATSLRFRLLRQCGLFIPQDVFKTFQNKTGEFDMKLCDNVKGLLSLYEASYLGWKGENILDEAKAFATKYLKSAWENISEKWLAKRVKHALALPLHWRVPRIEARWFIEAYEQEANMNPTLLKLAKLDFNMVQSIHQKEIGELARWWVTTGLDKLAFARNNLLQSYMWSCAIASDPKFKLARETIVEIGSVLTVVDDAYDVYGSMDELDLYTSSVERWSCVEIDKLPNTLKLIFMSMFNKTNEVGLRVQHERGYNSIPTFIKAWVQQCKSYQKEARWFHGGHTPPLEEYSLNGLVSIGFPLLLITGYVAIAENEAALDKVHPLPDLLHYSSLLSRLINDIGTSPDEMARGDNLKSIHCYMNGTGASEEVAREHIKGVIEENWKILNQCCFDQSQFQEPFITFNLNSVRGSHFFYEFGDGFGVTDSWTKVDMKSVLIDPIPLGEE", "modifications": "SauSSy Protein"}}, "assay_type_in_all_cases": "biochemical", "key": {"[1]": {"assay": "Steady-state enzyme kinetic assays", "method": "For determination of steady-state enzyme kinetic constants, conditions were as described previously except the enzyme concentration was kept at 10 nM. Substrate concentrations ranged from 1 uM to 100 uM, and reactions were incubated at 30° C. for exactly 5 mins. Reactions were quenched by the addition of 500 μL 0.5 M EDTA, pH 8.0 and vortexed as above.\n(§1) GC-FID was performed on a Shimadzu GC2010 with a 30 m 0.25 mm ID, 0.25 μm film DB-WAX column with He as the carrier gas. Splitless injection (2 μL) was used for all analyses. Conditions were as follows: injector 200° C., detector 250° C., column flow rate 1 mL/min. Oven program: 40° C. for 3 min, then 8° C./min to 180° C., held 5 min, then 10° C./min to 220° C., held 10 min. Needle height was adjusted to only draw from the upper organic layer of all sample vials. GC-MS was performed on a Shimadzu GC2010 with the same DB-WAX column and using He as the carrier gas. Conditions were as follows: injector 200° C., MS interface 240° C., ion source 200° C. Oven program: 40° C. for 3 min, then 8° C./min to 180° C., held 5 min, then 10° C./min to 220° C., held 10 min. Solvent cut time was set to 5 min. For product identification, total ion monitoring was used, scanning from m/z 45 to m/z 300. For kinetic assays, single ion monitoring of the sesquiterpene base ions m/z 91, 93 and 94 were used. Likewise monoterpene base ions (m/z 69, 71 and 93) were monitored. An internal standard (isobutyl benzene, 30 μM) was added to the hexane used to overlay each reaction. Detector response factors were calculated based on the santalene standard prepared earlier and used to determine the product concentrations for kinetic analysis."}, "[2]": {"assay": "GC-FID determination of reaction products of terpene synthases from FPP with magnesium or manganese"}, "[3]": {"assay": "GC-FID determination of reaction products of terpene synthases from FPP with magnesium or manganese", "method": "Enzyme assays for all recombinant proteins were done in triplicate using the GC vial method described by O'Maille et al. (Anal. Biochem. 335:[…] (2004). For enzyme assays where only product identification was needed, 10 μg of protein was used in a final volume of 500 μL of reaction buffer (25 mM HEPES, 10% glycerol, 5 mM DTT and 10 mM of either Mg^2+ or Mn^2+. Substrates (FPP and GPP) were added to a final reaction concentration of 100 μM. Vials were overlaid with 500 μL of hexane to trap volatile products and incubated at 30° C. for 2 h. Mixtures were vortexed for 1 min to extract all volatiles and the vials were centrifuged to separate the organic layer.\nProduct mixtures were analysed by GC-MS in scan mode for product identification. A standard containing the three santalenes and α-trans-bergamotene was prepared by flash chromatography of 2 mL of neat S. album oil over silica and eluted in hexane. A final yield of 25 mg was resuspended in EtOAc and purity was confirmed by GC-FID with conditions described below. All mass spectra were compared to the NIST 2005 library and the literature. Retention indices were determined for all compounds using an n-alkane standard and compared to the literature (R. P. Adams, “Identification of essential oil components by gas chromatography/mass spectrometry,” Allured Publishing Corporation, Carol Stream, Ill. (1995)).\nas §1", "remark": "listed apart in the source"}}, "data": [{"molecule": "B1", "values": [{"measurement": "Kcat", "setting": "[1]; FPP", "value": 0.0277, "unit": "s⁻¹"}, {"measurement": "Vmax", "setting": "[1]; assays using FPP", "value": 0.54, "unit": "µM/min"}, {"measurement": "Relative % composition in oil produced by enzyme: epi-β-santalol", "setting": "[2]", "value": 4.8, "unit": "%"}, {"measurement": "Relative % composition in oil produced by enzyme: α-santalol", "setting": "[2]", "value": 51.3, "unit": "%"}, {"measurement": "E-β-farnesene among reaction products (GC-FID)", "setting": "[3]; FPP Mg, mean", "value": 1.4}, {"measurement": "Z-β-farnesene among reaction products (GC-FID)", "setting": "[3]; FPP Mg, mean", "value": 0.6}, {"measurement": "epi-β-santalene among reaction products (GC-FID)", "setting": "[3]; FPP Mg, mean", "value": 4.8}, {"measurement": "α-E-bergamotene among reaction products (GC-FID)", "setting": "[3]; FPP Mg, mean", "value": 14.5}, {"measurement": "α-santalene among reaction products (GC-FID)", "setting": "[3]; FPP Mg, mean", "value": 51.3}, {"measurement": "β-santalene among reaction products (GC-FID)", "setting": "[3]; FPP Mg, mean", "value": 27.4}, {"measurement": "E-β-farnesene among reaction products (GC-FID)", "setting": "[3]; FPP Mg, replicate 1", "value": 1.5}, {"measurement": "Z-β-farnesene among reaction products (GC-FID)", "setting": "[3]; FPP Mg, replicate 1", "value": 0.6}, {"measurement": "epi-β-santalene among reaction products (GC-FID)", "setting": "[3]; FPP Mg, replicate 1", "value": 4.7}, {"measurement": "α-E-bergamotene among reaction products (GC-FID)", "setting": "[3]; FPP Mg, replicate 1", "value": 13.8}, {"measurement": "α-santalene among reaction products (GC-FID)", "setting": "[3]; FPP Mg, replicate 1", "value": 51.7}, {"measurement": "β-santalene among reaction products (GC-FID)", "setting": "[3]; FPP Mg, replicate 1", "value": 27.8}, {"measurement": "E-β-farnesene among reaction products (GC-FID)", "setting": "[3]; FPP Mg, replicate 2", "value": 1.3}, {"measurement": "Z-β-farnesene among reaction products (GC-FID)", "setting": "[3]; FPP Mg, replicate 2", "value": 0.6}, {"measurement": "epi-β-santalene among reaction products (GC-FID)", "setting": "[3]; FPP Mg, replicate 2", "value": 4.6}, {"measurement": "α-E-bergamotene among reaction products (GC-FID)", "setting": "[3]; FPP Mg, replicate 2", "value": 14.6}, {"measurement": "α-santalene among reaction products (GC-FID)", "setting": "[3]; FPP Mg, replicate 2", "value": 51.5}, {"measurement": "β-santalene among reaction products (GC-FID)", "setting": "[3]; FPP Mg, replicate 2", "value": 27.5}, {"measurement": "E-β-farnesene among reaction products (GC-FID)", "setting": "[3]; FPP Mg, replicate 3", "value": 1.5}, {"measurement": "Z-β-farnesene among reaction products (GC-FID)", "setting": "[3]; FPP Mg, replicate 3", "value": 0.5}, {"measurement": "epi-β-santalene among reaction products (GC-FID)", "setting": "[3]; FPP Mg, replicate 3", "value": 5.1}, {"measurement": "α-E-bergamotene among reaction products (GC-FID)", "setting": "[3]; FPP Mg, replicate 3", "value": 15.2}, {"measurement": "α-santalene among reaction products (GC-FID)", "setting": "[3]; FPP Mg, replicate 3", "value": 50.7}, {"measurement": "β-santalene among reaction products (GC-FID)", "setting": "[3]; FPP Mg, replicate 3", "value": 27.0}, {"measurement": "E-β-farnesene among reaction products (GC-FID)", "setting": "[3]; FPP Mn, mean", "value": 8.5}, {"measurement": "Z-β-farnesene among reaction products (GC-FID)", "setting": "[3]; FPP Mn, mean", "value": 0.9}, {"measurement": "epi-β-santalene among reaction products (GC-FID)", "setting": "[3]; FPP Mn, mean", "value": 1.2}, {"measurement": "α-E-bergamotene among reaction products (GC-FID)", "setting": "[3]; FPP Mn, mean", "value": 73.6}, {"measurement": "α-santalene among reaction products (GC-FID)", "setting": "[3]; FPP Mn, mean", "value": 10.2}, {"measurement": "β-santalene among reaction products (GC-FID)", "setting": "[3]; FPP Mn, mean", "value": 5.3}, {"measurement": "E-β-farnesene among reaction products (GC-FID)", "setting": "[3]; FPP Mn, replicate 1", "value": 8.3}, {"measurement": "Z-β-farnesene among reaction products (GC-FID)", "setting": "[3]; FPP Mn, replicate 1", "value": 0.9}, {"measurement": "epi-β-santalene among reaction products (GC-FID)", "setting": "[3]; FPP Mn, replicate 1", "value": 1.4}, {"measurement": "α-E-bergamotene among reaction products (GC-FID)", "setting": "[3]; FPP Mn, replicate 1", "value": 72.5}, {"measurement": "α-santalene among reaction products (GC-FID)", "setting": "[3]; FPP Mn, replicate 1", "value": 10.3}, {"measurement": "β-santalene among reaction products (GC-FID)", "setting": "[3]; FPP Mn, replicate 1", "value": 5.3}, {"measurement": "E-β-farnesene among reaction products (GC-FID)", "setting": "[3]; FPP Mn, replicate 2", "value": 8.5}, {"measurement": "Z-β-farnesene among reaction products (GC-FID)", "setting": "[3]; FPP Mn, replicate 2", "value": 0.9}, {"measurement": "epi-β-santalene among reaction products (GC-FID)", "setting": "[3]; FPP Mn, replicate 2", "value": 0.8}, {"measurement": "α-E-bergamotene among reaction products (GC-FID)", "setting": "[3]; FPP Mn, replicate 2", "value": 73.8}, {"measurement": "α-santalene among reaction products (GC-FID)", "setting": "[3]; FPP Mn, replicate 2", "value": 10.5}, {"measurement": "β-santalene among reaction products (GC-FID)", "setting": "[3]; FPP Mn, replicate 2", "value": 5.5}, {"measurement": "E-β-farnesene among reaction products (GC-FID)", "setting": "[3]; FPP Mn, replicate 3", "value": 8.6}, {"measurement": "Z-β-farnesene among reaction products (GC-FID)", "setting": "[3]; FPP Mn, replicate 3", "value": 0.9}, {"measurement": "epi-β-santalene among reaction products (GC-FID)", "setting": "[3]; FPP Mn, replicate 3", "value": 1.2}, {"measurement": "α-E-bergamotene among reaction products (GC-FID)", "setting": "[3]; FPP Mn, replicate 3", "value": 74.4}, {"measurement": "α-santalene among reaction products (GC-FID)", "setting": "[3]; FPP Mn, replicate 3", "value": 9.7}, {"measurement": "β-santalene among reaction products (GC-FID)", "setting": "[3]; FPP Mn, replicate 3", "value": 5.1}, {"measurement": "Relative % composition in oil produced by enzyme: E-α-bergamotol", "setting": "[3]; GC-FID", "value": 14.5, "unit": "%"}, {"measurement": "Relative % composition in oil produced by enzyme: β-santalol", "setting": "[3]; GC-FID", "value": 27.4, "unit": "%"}]}]}
